The data set addresses T1, RelE (UniProt P0C077 1-95).
T1 sequence: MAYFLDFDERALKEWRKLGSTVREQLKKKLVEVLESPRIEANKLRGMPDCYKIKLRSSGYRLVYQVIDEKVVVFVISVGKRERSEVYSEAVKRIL
As to the kind of experiment: intrinsic protein fluorescence.

The values that follow come from article PMC7260706.

On to GGCAAGGAGGUAAAAAUGUAGAAAAACAAU (ssRNA) [unmodified mRNA], for which the binding result is “binds”.
